The record followed here is patent US20050064507A1, “Determining kinase specificity” (priority 2003, published 2005).

One experiment deals with T1, PKC-delta (Homo sapiens, UniProt Q05655).
T1 construct: purchased Calbiochem
Kind of experiment: In vitro kinase assay: peptide phosphorylation by PKC-delta. The class given is biochemical. The conditions noted are these: peptide concentration of 10 nM; percentage of phosphorylation of the best validating peptide substrate. The text has this: One approach to validating a substrate identification method can involve, for example, comparison of substrate sites predicted by the method with in vitro phosphorylation results obtained using the selected kinase and peptides of known sequences. Such a systematic validation has been performed for the methods described herein. For example, a panel of seventy five peptides was synthesized, the phosphorylation observed for each peptide was experimentally measured, the amount of phosphorylation was quantified, the phosphorylation results for each peptide were normalized to the phosphorylation observed with the best substrate tested and these amounts were compared with predictions made according to the invention and according to the procedures provided by others. These peptides are referred to herein as proteomic peptides because their sequences are chosen from proteins in the human proteome; unlike the test sets employed herein, these peptides include no degenerate positions
Table 2 compares the present predictions with actual measurements of phosphorylation on validating peptides. The method of synthesis of the validating peptides was as described elsewhere in the application, and each included an N-terminal linker sequence of biotinylated-Lys-dansylated-Lys-Pro-Pro-Gly (SEQ ID NO:231). The length of the remaining “core” of the validating peptides ranged from 12-21 residues with one to five S/T residues. In vitro phosphorylation of these validating peptides was measured in the manner described herein. […] In vitro phosphorylation results for the validating peptides were expressed as normalized values, namely as a percentage of phosphorylation of the best validating peptide substrate in the group.
(§1) The conditions of the kinase assay and the amount of active kinase used varied with the kinase and with the accuracy needed. For a typical experiment, 5-20 ng of kinase was used per well and each peptide pool was assayed in duplicate wells. Note that the absolute amount of kinase used was not usually a critical parameter, because the desired information related to specificity of the kinase not its absolute activity, and robustness of the assay depends on comparisons of the same amount of kinase on different peptides. The combination of kinase concentration and assay duration was modified to assure that the stoichiometry of peptide phosphorylation never exceeded 5%. The choice of kinase buffer depended on the kinase being analyzed. For studies of PKC, 100 mM HEPES, 0.05% Triton-X100, 1 mM CaCl2, 20 mM MgCl2, 0.2 mg/ml phosphatidyl serine (Avanti Polar Lipids), PMA 100 ng/ml was typically used. The lipid stock was prepared by transferring 3 mg phosphatidyl serine into iced mixture of 450 μl water plus 50 μl of 10% Triton-X100, sonicating 10 times on ice for 1 sec each.
(§2) The kinase reaction mixture was assembled by sequential addition to a tube held on ice of: 5 μl peptide (100 μM for final concentration of 10 μM), 15 μl of kinase (typically 5 ng/well, in appropriate kinase buffer), 30 μl of ATP (1 uCi/well of ^32P-gamma ATP in a stock of 167 μM cold ATP in the kinase buffer; for final concentration for 100 μM ATP). The mixture was rapidly warmed to desired reaction temperature (30° C. for PKC) and incubated for the desired duration (usually 10 minutes). The kinase assay was terminated by transfer to 4° C. water batch, and rapid addition of an equal volume (50 μl) of stop solution [0.1M ATP+0.1M EDTA in water, pH 8].
The peptides were then captured from the reaction mixture by transfer to a Reacti-Bind Streptavidin High Binding Capacity Coated Plates (HBC) (Pierce Biotechnology) as follows. The HBC plates were pre-rinsed three times with PBS/Tween PBS/Tween20 0.05% (PBS/Tween). […]

A further experiment addresses T2, PKC-theta (Homo sapiens, UniProt Q04759).
T2 construct: His-tag; made in house; host or cells: baculovirus-infected Sf9 cells
Briefly: In vitro kinase assay: peptide phosphorylation by PKC-theta. The conditions noted are these: for Measured in vitro phosphorylation by PKC-theta: normalized to best substrate. It counts as biochemical.
From the text: A second strategy for validation of the PSSM derived from the methods described herein is to identify sequences represented in the human proteome that have low percentiles derived from the PSSM, to synthesize peptides that have those sequences, and test the efficiency of phosphorylation of those peptides by the kinase of interest. […] The results are shown for individual peptides (FIG. 11, panel A) or for groups of peptides aggregated by percentile prediction (FIG. 11, panel B). As with the testing described above with prospectively chosen peptides, the percentile scores are highly predictive of phosphorylation by the relevant kinase.
An example of the purification procedure used for production of active kinase is as follows. A preparation of PKC-theta was prepared using a Gateway expression construct containing PKC-theta that was expressed in baculovirus, which were used to infect Sf9 cells. The cell pellet from a liter of baculovirus-infected Sf9 cells was resuspended in 20 volumes (60 ml) of extraction buffer (20 mM Na phosphate buffer pH 7.5, 500 mM NaCl, 5 mM pyrophosphate, 10% glycerol, 10 mM imidazole, 1 mM PMSF), sonicated twice for one minute (1 cm tip at 60% power and 50% duty cycle) and cell disruption was verified microscopically. The sample was adjusted to five mM MgCl2 and treated with one U benzonase/ml for an additional 20 minute on ice. The sample was clarified by centrifugation in a JA-20 rotor at 15K for 30 min at 4° C., filtered through a […] filter and applied at 0.5 ml/min to a one ml chelating sepharose column previously charged with nickel and equilibrated with extraction buffer. The column was washed with extraction buffer at one ml/min to baseline and eluted in a 20 ml gradient (20-500 mM imidazole in extraction buffer) into one ml fractions that were analyzed by SDS-PAGE. Fractions with the highest concentration of protein were pooled, were dialyzed twice against one liter of 20 mM Na PO4 pH 7.5, 50 mM NaCl buffer. The kinase pool was dialyzed twice against 20 mM HEPES pH 7.4, 100 mM NaCl, 2 mM EDTA, 5 mM DTT, 0.05% Triton-X-100. After dialysis, the sample was adjusted to 50% glycerol and quick-frozen in a dry ice/ethanol bath.
as §1
as §2, with “8]. […]” for “8].”

T1 sequence (Q05655 whole entry): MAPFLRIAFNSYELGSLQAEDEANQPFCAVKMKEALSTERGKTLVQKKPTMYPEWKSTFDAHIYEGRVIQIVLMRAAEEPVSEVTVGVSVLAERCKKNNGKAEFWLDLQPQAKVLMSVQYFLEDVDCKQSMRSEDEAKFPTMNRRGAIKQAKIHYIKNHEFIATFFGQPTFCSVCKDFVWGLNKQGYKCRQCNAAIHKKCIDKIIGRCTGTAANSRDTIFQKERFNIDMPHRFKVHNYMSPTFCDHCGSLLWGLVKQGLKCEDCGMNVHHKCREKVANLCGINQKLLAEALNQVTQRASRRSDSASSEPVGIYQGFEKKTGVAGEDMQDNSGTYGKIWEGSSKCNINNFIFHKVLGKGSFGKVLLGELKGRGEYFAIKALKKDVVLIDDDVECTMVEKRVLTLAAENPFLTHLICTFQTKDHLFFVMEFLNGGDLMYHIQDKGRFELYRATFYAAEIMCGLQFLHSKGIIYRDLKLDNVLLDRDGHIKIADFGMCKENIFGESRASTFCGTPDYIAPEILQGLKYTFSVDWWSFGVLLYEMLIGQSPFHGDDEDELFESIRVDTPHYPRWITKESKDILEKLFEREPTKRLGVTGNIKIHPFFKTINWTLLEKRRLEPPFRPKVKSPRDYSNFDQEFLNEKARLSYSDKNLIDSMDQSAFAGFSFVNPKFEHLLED
T2 sequence (Q04759 whole entry): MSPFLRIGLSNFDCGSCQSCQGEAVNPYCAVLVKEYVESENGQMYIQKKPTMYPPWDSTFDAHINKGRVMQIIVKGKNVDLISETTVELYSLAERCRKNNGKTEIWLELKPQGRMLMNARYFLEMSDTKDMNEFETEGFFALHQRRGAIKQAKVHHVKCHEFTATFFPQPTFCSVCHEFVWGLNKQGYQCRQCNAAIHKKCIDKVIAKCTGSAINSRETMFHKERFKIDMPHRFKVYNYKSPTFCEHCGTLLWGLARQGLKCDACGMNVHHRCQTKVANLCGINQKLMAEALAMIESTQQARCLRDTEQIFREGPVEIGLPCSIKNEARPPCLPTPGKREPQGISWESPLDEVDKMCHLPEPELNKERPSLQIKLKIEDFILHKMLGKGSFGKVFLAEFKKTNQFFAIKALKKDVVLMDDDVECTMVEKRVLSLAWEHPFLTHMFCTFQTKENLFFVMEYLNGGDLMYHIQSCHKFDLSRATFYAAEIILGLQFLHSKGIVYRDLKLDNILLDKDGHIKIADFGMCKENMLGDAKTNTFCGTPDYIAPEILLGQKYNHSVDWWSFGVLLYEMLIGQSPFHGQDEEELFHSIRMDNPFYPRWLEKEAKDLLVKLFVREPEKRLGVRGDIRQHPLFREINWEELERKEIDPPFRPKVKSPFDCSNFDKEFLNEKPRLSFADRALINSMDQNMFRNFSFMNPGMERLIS

Regarding 70 (HERKGSDKRGDNQ) [compound 70], the “Measured in vitro phosphorylation by PKC-delta” value (from here on “Measured … by PKC-delta”) with PKC-delta is recorded as 1%.

Turning to 71 (RRRQKRRTGALVLSRGGKR) [compound 71], in the experiment with PKC-delta, the “Measured … by PKC-delta” value is recorded as 1%.

“72 (LTDPKEDPIYDEPEGLAPVPG) [compound 72]”: in the experiment with PKC-delta, the “Measured … by PKC-delta” value worked out at 0%.

As for 73 (IDYYKKTTNGRLPVK) [compound 73], the “Measured … by PKC-delta” value with PKC-delta worked out at 0%.

With 74 (IDYYKKTSNGRLPVK) [compound 74], the “Measured … by PKC-delta” value with PKC-delta stood at 0%.

As to 168 (AMSRSASKRRSR) [compound 168], the “Measured in vitro phosphorylation by PKC-theta” value (from here on “Measured … by PKC-theta”) in the experiment with PKC-theta is 100%.

Consider 169 (RTRSRRLTFRK) [compound 169], for which the “Measured … by PKC-theta” value with PKC-theta was 100%.

On to 170 (VKLRRSKKRTKR) [compound 170], for which, in the experiment with PKC-theta, the “Measured … by PKC-theta” value amounted to 98%.

As for 171 (RRGRRSTKKRRR) [compound 171], the “Measured … by PKC-theta” value with PKC-theta turned out to be 92%.

With 172 (VRRRRSQRISQR) [compound 172], the “Measured … by PKC-theta” value in the experiment with PKC-theta amounted to 86%.

As to 173 (RSGRRRGSQKS) [compound 173], the “Measured … by PKC-theta” value in the experiment with PKC-theta is recorded as 85%.

Take 174 (KKERRRNSINRN) [compound 174]: the “Measured … by PKC-theta” value with PKC-theta is given as 83%.

With 175 (KKRRTKSSRRGV) [compound 175], in the experiment with PKC-theta, the “Measured … by PKC-theta” value is listed as 80%.

Consider 176 (RRERSRSRRKQ) [compound 176], for which the “Measured … by PKC-theta” value with PKC-theta came out at 66%.

For the substance 177 (RRRRRRSRTFSR) [compound 177], in the experiment with PKC-theta, the “Measured … by PKC-theta” value was 66%.

Consider 178 (RRRRSRTFSRS) [compound 178], for which, in the experiment with PKC-theta, the “Measured … by PKC-theta” value was 65%.

Consider 179 (KRHYRKSVRSRS) [compound 179], for which the “Measured … by PKC-theta” value with PKC-theta is on record as 65%.

Consider 180 (FLRRSSSRRNRS) [compound 180], for which, in the experiment with PKC-theta, the “Measured … by PKC-theta” value was found to be 65%.

On to 181 (TGERKRKSVRG) [compound 181], for which the “Measured … by PKC-theta” value with PKC-theta is 62%.

For 182 (TKKKRGSYRGGS) [compound 182], the “Measured … by PKC-theta” value with PKC-theta was 61%.

In the case of 183 (ARRSKRSRRRET) [compound 183], the “Measured … by PKC-theta” value with PKC-theta worked out at 55%.

Take 184 (FRASSRSTTK) [compound 184]: the “Measured … by PKC-theta” value with PKC-theta was 54%.

As to 185 (KKFKRRLSLTLR) [compound 185], the “Measured … by PKC-theta” value with PKC-theta was determined as 51%.

For 186 (DFRRRRSFRRIA) [compound 186], in the experiment with PKC-theta, the “Measured … by PKC-theta” value is 50%.

On to 187 (LRRKSSTRHIHA) [compound 187], for which the “Measured … by PKC-theta” value in the experiment with PKC-theta came out at 48%.

For the substance 188 (ERGRRGSKKGSI) [compound 188], the “Measured … by PKC-theta” value with PKC-theta was 44%.

Turning to 189 (GRRRRSRSKVK) [compound 189], in the experiment with PKC-theta, the “Measured … by PKC-theta” value is given as 43%.

As to 190 (RRRRHTMDKDSR) [compound 190], the “Measured … by PKC-theta” value with PKC-theta is recorded as 40%.

Consider 191 (HKRNSVRLVIR) [compound 191], for which, in the experiment with PKC-theta, the “Measured … by PKC-theta” value is listed as 38%.

Consider 192 (GNRKGKSKKWRQ) [compound 192], for which, in the experiment with PKC-theta, the “Measured … by PKC-theta” value was determined as 35%.

193 (PLRKSSLKKGGR) [compound 193]: in the experiment with PKC-theta, the “Measured … by PKC-theta” value is given as 35%.

For 194 (KRRKRKSLQRHK) [compound 194], the “Measured … by PKC-theta” value with PKC-theta is 34%.

Turning to 195 (PGSSHRKTKK) [compound 195], in the experiment with PKC-theta, the “Measured … by PKC-theta” value was 33%.

Take 196 (RWKRRRSYSREH) [compound 196]: the “Measured … by PKC-theta” value in the experiment with PKC-theta is 32%.

Take 197 (ILRPSKSVKLRS) [compound 197]: the “Measured … by PKC-theta” value in the experiment with PKC-theta is listed as 32%.

In the case of 198 (RRRRPTKSKGSK) [compound 198], the “Measured … by PKC-theta” value with PKC-theta was determined as 28%.

Consider 199 (RGRRSRSRLRRR) [compound 199], for which the “Measured … by PKC-theta” value in the experiment with PKC-theta was found to be 27%.

Regarding 200 (EQQRRALSFRQ) [compound 200], the “Measured … by PKC-theta” value with PKC-theta was 26%.

201 (TQDRRKSLFKKI) [compound 201]: the “Measured … by PKC-theta” value in the experiment with PKC-theta came to 25%.

Take 202 (VMKRKFSLRAAE) [compound 202]: the “Measured … by PKC-theta” value in the experiment with PKC-theta is given as 24%.

Turning to 203 (VRRSKKSKKKES) [compound 203], in the experiment with PKC-theta, the “Measured … by PKC-theta” value came to 24%.

For 204 (RFSRRSSSWRIL) [compound 204], in the experiment with PKC-theta, the “Measured … by PKC-theta” value came out at 22%.

With 205 (EGRRSRSRRYSG) [compound 205], in the experiment with PKC-theta, the “Measured … by PKC-theta” value came out at 22%.

Regarding 206 (KSSRNSTSVKKK) [compound 206], the “Measured … by PKC-theta” value with PKC-theta came to 19%.

Regarding 207 (SFRGHITRKKLK) [compound 207], the “Measured … by PKC-theta” value with PKC-theta is recorded as 18%.

Turning to 208 (VSRPRKSRKRVD) [compound 208], in the experiment with PKC-theta, the “Measured … by PKC-theta” value is given as 17%.

On to 209 (DKEKSKGSLKRK) [compound 209], for which, in the experiment with PKC-theta, the “in vitro phosphorylation by PKC” value is listed as “phosphorylated by PKC” and the “Measured … by PKC-theta” value was determined as 17%.

With 210 (PLRRRESMHVEQ) [compound 210], in the experiment with PKC-theta, the “Measured … by PKC-theta” value is 16%.

With 211 (RSRSYSRSRSR) [compound 211], the “Measured … by PKC-theta” value with PKC-theta is reported as 16%.

In the case of 212 (VSRGSSLKILSK) [compound 212], the “Measured … by PKC-theta” value in the experiment with PKC-theta came out at 13%.

On to 213 (RHSRSRSRHRLS) [compound 213], for which the “Measured … by PKC-theta” value in the experiment with PKC-theta came out at 13%.

For 214 (SRRRSPSYSRHS) [compound 214], in the experiment with PKC-theta, the “Measured … by PKC-theta” value came to 13%.

As for 215 (TKKRSKSRSKER) [compound 215], the “Measured … by PKC-theta” value with PKC-theta came out at 12%.

Consider 216 (SCRTSSRKRAGK) [compound 216], for which, in the experiment with PKC-theta, the “Measured … by PKC-theta” value turned out to be 11%.
